Paper PMC6105727, “Architecture of the native major royal jelly protein 1 oligomer” (Nature Communications, 2018)

Key:
[1] = target: T1, MRJP1 oligomer (MRJP1_4-apisimin4-24-methylenecholesterol8 complex) (Apis mellifera, UniProt O18330+Q8ISL8); test: X-ray crystal structure at […] Å; co-purified ligand identified by GC-MS and NMR; format: binding; settings: co-purified natural ligand; eight per complex (four per asymmetric unit); inner two contact MRJP1 and apisimin, outer two apisimin only; crystals at pH 8.5
T1 construct: native complex purified from royal jelly; mature chains without signal peptides; partly deglycosylated with PNGase F (NAG left at Asn144); modelled MRJP1 23-432 and 28-432, apisimin 37-77 and 36-78; 254 kDa by AUC
T1 sequence (O18330 20-432): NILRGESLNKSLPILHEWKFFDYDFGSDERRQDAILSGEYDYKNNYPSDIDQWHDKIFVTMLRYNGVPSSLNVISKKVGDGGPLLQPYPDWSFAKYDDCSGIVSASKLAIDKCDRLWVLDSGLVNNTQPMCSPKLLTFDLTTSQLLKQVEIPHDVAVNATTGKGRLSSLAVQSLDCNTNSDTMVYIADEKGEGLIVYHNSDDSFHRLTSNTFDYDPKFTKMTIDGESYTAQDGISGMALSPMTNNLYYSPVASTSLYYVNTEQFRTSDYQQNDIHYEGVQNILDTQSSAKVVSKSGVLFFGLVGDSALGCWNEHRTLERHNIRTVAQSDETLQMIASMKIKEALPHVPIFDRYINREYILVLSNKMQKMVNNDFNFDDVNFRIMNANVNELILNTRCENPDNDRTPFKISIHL
T1 sequence (Q8ISL8 25-78): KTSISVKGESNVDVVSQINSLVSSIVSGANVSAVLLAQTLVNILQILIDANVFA

[2] = target: T2, Major royal jelly protein 1 (Apis mellifera, UniProt O18330 20-432, N-acetylglucosamine linked to Asn144 (seen in the crystal after partial deglycosylation); native glycoprotein); test: SEC + other: SAXS; purified native MRJP1 oligomer at near-neutral pH; SAXS in 20 mM sodium phosphate pH 8, 150 mM NaCl, 0.1-10 mg/mL
T2 construct: Major royal jelly protein 1 (MRJP1) of the honeybee Apis mellifera; mature protein without N-terminal signal peptide; modelled residues 23-432 (protomer A) and 28-432 (protomer B); Native protein; occurs in royal jelly as a monomer fraction and as an oligomer with apisimin and 24-methylenecholesterol; also called MRJP1; royalactin (the monomer); source: purified from royal jelly (ultrafiltration, …)
T2 sequence (looked up): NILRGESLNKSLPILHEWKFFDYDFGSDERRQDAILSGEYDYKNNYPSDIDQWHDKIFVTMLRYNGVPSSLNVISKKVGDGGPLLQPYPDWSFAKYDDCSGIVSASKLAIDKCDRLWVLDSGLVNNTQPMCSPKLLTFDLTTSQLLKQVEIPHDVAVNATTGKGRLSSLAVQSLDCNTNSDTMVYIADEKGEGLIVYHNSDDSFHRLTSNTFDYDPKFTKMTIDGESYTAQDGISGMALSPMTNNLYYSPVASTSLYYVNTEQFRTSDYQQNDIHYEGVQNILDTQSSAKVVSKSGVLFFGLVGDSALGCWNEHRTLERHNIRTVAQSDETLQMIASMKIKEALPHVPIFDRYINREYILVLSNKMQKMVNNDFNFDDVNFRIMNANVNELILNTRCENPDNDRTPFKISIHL

[3] = target: T2, Major royal jelly protein 1; test: SEC; gel filtration of royal jelly collected from the nectar of different plants and from different honeybee species (Supplementary Fig. 10A, B)
[4] = target: T2, Major royal jelly protein 1; test: crystal structure; native MRJP1 oligomer from royal jelly, deglycosylated with PNGase F; hanging drop, 0.1 M Tris pH 8.5, 2.0 M ammonium phosphate; 2.65 Å, space group H32
[5] = target: Major royal jelly protein 1 of Apis cerana (Apis cerana); test: SEC; gel filtration of royal jelly collected from the nectar of different plants and from different honeybee species (Supplementary Fig. 10A, B)
[6] = target: the molecule itself; test: crystal structure; native MRJP1 oligomer from royal jelly, deglycosylated with PNGase F; hanging drop, 0.1 M Tris pH 8.5, 2.0 M ammonium phosphate; 2.65 Å, space group H32

C=C(CC[C@@H](C)[C@H]1CC[C@H]2[C@@H]3CC=C4C[C@@H](O)CC[C@]4(C)[C@H]3CC[C@]12C)C(C)C [Osl, 24-methylenecholesterol]
X-ray crystal structure at 2.65 Å; co-purified ligand identified by GC-MS and NM [1]: The asymmetric unit contains two MRJP1, two apisimin, four unexpected 24-methylenecholesterol (ostreasterol, Osl)

Major royal jelly protein 1 (from UniProt O18330 20-432) (natural protein)
stoichiometry N [2]: 4 | stoichiometry N [3]: 4 | stoichiometry N [4]: 4

Major royal jelly protein 1 of Apis cerana (natural protein)
stoichiometry N [5]: 4

B1: apisimin (peptide, UniProt Q8ISL8 25-78, looked up)
chain: KTSISVKGESNVDVVSQINSLVSSIVSGANVSAVLLAQTLVNILQILIDANVFA
notes: Apisimin, serine-valine-rich peptide of the honeybee; mature protein without N-terminal signal peptide; modelled residues 37-77 (protomer C) and 36-78 (protomer D); source: co-purified with the native MRJP1 oligomer from royal jelly
binding result ([4]; both partners purified): binds | binding result [6]: binds
